Reference: PMC8573869
Positions count from the first letter of the chain named. Names may count otherwise. One block for each binder: values may come before it.

Key:
[1] = target: T1, endogenous long reticulon-3 (RTN3L), O95197; assay: co-immunoprecipitation (anti-FLAG IP, densitometry); details: chain shown with the change; MCF7 cells transfected for 48 h, crosslinking; n = 3; parent: est. 1.0; read off a plot
T1 chain: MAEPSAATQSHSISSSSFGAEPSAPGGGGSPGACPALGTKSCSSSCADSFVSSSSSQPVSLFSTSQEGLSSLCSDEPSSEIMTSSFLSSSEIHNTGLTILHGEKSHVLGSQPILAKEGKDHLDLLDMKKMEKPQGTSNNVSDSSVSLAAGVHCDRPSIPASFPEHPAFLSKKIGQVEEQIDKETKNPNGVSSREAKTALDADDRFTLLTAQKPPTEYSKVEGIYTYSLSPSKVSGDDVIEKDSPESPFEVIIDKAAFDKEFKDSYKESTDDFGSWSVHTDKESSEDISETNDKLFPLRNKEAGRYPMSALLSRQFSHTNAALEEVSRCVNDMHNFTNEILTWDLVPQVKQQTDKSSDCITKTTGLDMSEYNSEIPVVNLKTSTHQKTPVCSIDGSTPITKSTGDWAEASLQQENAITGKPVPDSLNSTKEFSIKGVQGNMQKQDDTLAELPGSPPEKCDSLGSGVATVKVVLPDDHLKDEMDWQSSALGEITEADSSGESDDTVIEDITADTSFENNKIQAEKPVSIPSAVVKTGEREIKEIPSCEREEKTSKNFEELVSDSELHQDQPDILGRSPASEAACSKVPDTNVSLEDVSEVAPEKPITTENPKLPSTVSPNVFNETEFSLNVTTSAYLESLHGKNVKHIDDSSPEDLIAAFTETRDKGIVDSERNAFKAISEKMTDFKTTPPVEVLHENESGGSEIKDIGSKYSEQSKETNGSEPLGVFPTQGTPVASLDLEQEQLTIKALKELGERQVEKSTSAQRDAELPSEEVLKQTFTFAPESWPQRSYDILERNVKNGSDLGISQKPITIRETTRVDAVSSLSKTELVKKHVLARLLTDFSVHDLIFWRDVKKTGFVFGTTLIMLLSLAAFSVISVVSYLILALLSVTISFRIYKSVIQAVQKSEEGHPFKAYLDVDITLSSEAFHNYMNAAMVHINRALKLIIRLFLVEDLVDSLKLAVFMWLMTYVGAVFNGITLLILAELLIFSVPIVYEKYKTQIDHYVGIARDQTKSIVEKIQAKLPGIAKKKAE

[2] = target: T2, endogenous family with sequence similarity 134 member B (FAM134B), Q9H6L5; assay: as above; details: chain shown with the change; MCF7 cells transfected for 48 h, crosslinking; n = 3; parent: est. 1.0; read off a plot
T2 chain: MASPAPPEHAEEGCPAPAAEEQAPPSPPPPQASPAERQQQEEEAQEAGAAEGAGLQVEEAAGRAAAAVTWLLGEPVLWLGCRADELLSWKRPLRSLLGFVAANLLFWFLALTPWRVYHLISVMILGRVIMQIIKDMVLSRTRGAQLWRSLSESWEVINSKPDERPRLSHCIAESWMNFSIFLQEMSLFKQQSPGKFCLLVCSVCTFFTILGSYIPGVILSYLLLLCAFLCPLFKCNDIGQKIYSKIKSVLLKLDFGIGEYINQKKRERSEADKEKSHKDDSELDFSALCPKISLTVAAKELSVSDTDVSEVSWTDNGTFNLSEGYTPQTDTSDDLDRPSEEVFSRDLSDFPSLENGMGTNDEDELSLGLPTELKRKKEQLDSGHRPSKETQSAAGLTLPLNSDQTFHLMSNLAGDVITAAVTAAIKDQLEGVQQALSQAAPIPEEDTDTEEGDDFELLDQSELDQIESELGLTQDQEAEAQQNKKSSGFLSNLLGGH

ratio to parent [1]: 1.3
ratio to parent [2]: 0.75
B1: FLAG-tagged wild-type Rab32, Q13637 T39N (protein)
chain: MAGGGAGDPGLGAAAAPAPETREHLFKVLVIGELGVGKNSIIKRYVHQLFSQHYRATIGVDFALKVLNWDSRTLVRLQLWDIAGQERFGNMTRVYYKEAVGAFVVFDISRSSTFEAVLKWKSDLDSKVHLPNGSPIPAVLLANKCDQNKDSSQSPSQVDQFCKEHGFAGWFETSAKDNINIEEAARFLVEKILVNHQSFPNEENDVDKIKLDQETLRAENKSQCC

ratio to parent [1]: 3.4
ratio to parent [2]: 0.95
B2: FLAG-tagged wild-type Rab32, Q13637 Q85L (protein)
chain: B1 chain with N39T, Q85L
